Assay results from patent publication US20090149339A1 (published 2009).
Ends that are not written are not given here. * marks the point of attachment. Biotin = O=C1N[C@H]2[C@H](CS[C@H]2CCCCC(=O)*)N1

B1: FasLigand C-terminal PL peptide AA23L-M, biotinylated (peptide)
peptide: Biotin-SSKSKSSEESQTFFGLYKL

Target: T1, GST-SYN1a PDZ domain fusion protein (alpha1-syntrophin AA96-189; PDZ domain 1 of 1) (UniProt P08515 1-218 = GST)
T1 construct: also called SYN 1 alpha; SYNTR 1 alpha
Experiment: A/G assays

T1 sequence (P08515 1-218, tags or fused parts left off): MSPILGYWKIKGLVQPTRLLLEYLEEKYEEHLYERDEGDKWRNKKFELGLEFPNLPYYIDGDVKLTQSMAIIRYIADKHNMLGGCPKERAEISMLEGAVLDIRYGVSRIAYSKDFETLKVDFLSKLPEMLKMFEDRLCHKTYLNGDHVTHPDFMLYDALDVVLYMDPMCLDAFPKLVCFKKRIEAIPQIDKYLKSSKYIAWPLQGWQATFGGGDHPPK

Binder	binding result
B1	no binding

Target: T2, GST-RGS12 PDZ domain fusion protein (human regulator of G-protein signalling 12 AA35-103; PDZ domain 1 of 1) (human, UniProt P08515 1-218 = GST)
T2 construct: also called RSG12
Experiment: A/G assays

T2 sequence (P08515 1-218, tags or fused parts left off): as above

Binder	binding result
B1	no binding

Target: T3, GST-CBP PDZ domain fusion protein (Cytohesin binding protein HE AA85-175; PDZ domain 1 of 1) (UniProt P08515 1-218 = GST)
T3 construct: also called Prot
Experiment: A/G assays

T3 sequence (P08515 1-218, tags or fused parts left off): as above

Binder	binding result
B1	no binding

Target: GST-MINT3 PDZ domain fusion protein (human MINT3 AA11-52; PDZ domain 1 of 1) (human, UniProt P08515 1-218 = GST)
Experiment: A/G assays

Sequence of GST-MINT3 PDZ domain fusion protein (human MINT3 AA11-52; PDZ domain 1 of 1) (P08515 1-218, tags or fused parts left off): as above

Binder	binding result
B1	no binding

Target: GST-PTN-4 PDZ domain fusion protein (protein-tyrosine phosphatase meg1 AA774-862; PDZ domain 1 of 1) (UniProt P08515 1-218 = GST)
Experiment: A/G assays

Sequence of GST-PTN-4 PDZ domain fusion protein (protein-tyrosine phosphatase meg1 AA774-862; PDZ domain 1 of 1) (P08515 1-218, tags or fused parts left off): as above

Binder	binding result
B1	no binding

Target: T4, GST-TAX43 PDZ domain fusion protein (human tax interaction protein 43 AA15-85; PDZ domain 1 of 1) (human, UniProt P08515 1-218 = GST)
T4 construct: also called TX 43
Experiment: A/G assays

T4 sequence (P08515 1-218, tags or fused parts left off): as above

Binder	binding result
B1	no binding

Target: GST-MPP1 PDZ domain fusion protein (55 Kd erythrocyte membrane protein AA101-186; PDZ domain 1 of 1) (UniProt P08515 1-218 = GST)
Experiment: A/G assays

Sequence of GST-MPP1 PDZ domain fusion protein (55 Kd erythrocyte membrane protein AA101-186; PDZ domain 1 of 1) (P08515 1-218, tags or fused parts left off): as above

Binder	binding result
B1	no binding

Target: GST-TIAM1 PDZ domain fusion protein (T-lymphoma invasion and metastasis inducing protein 1 AA1001-1088); PDZ 1 … (UniProt P08515 1-218 = GST)
Experiment: A/G assays

Binder	binding result
B1	no binding

Target: T5, GST-TAX33 PDZ domain fusion protein (tax interaction protein 33 AA73-162; PDZ domain 1 of 1) (UniProt P08515 1-218 = GST)
T5 construct: also called TX33
Experiment: A/G assays

T5 sequence (P08515 1-218, tags or fused parts left off): as above

Binder	binding result
B1	no binding

Target: T6, GST-MPP2 PDZ domain fusion protein (maguk p55 subfamily member 2 (DLG2) AA185-273; PDZ domain 1 of 1) (UniProt P08515 1-218 = GST)
T6 construct: also called MMP2
Experiment: A/G assays

Binder	binding result
B1	no binding

Target: GST-NOS1 PDZ domain fusion protein (human neuronal nitric oxide synthase; PDZ domain 1 of 1) (human, UniProt P08515 1-218 = GST)
Experiment: A/G assays

Sequence of GST-NOS1 PDZ domain fusion protein (human neuronal nitric oxide synthase; PDZ domain 1 of 1) (P08515 1-218, tags or fused parts left off): as above

Binder	binding result
B1	no binding

Target: T7, GST-CASK PDZ domain fusion protein (CASK AA495-584; PDZ domain 1 of 1) (mouse, UniProt P08515 1-218 = GST)
T7 construct: also called mCASK
Experiment: A/G assays

Binder	binding result
B1	no binding

Target: T8, GST-KIAA0316 PDZ domain fusion protein (KIAA0316 AA197-284; PDZ domain 1 of 1) (UniProt P08515 1-218 = GST)
T8 construct: also called K316
Experiment: A/G assays

T8 sequence (P08515 1-218, tags or fused parts left off): as above

Binder	binding result
B1	no binding

Target: T9, GST-NeDLG PDZ domain fusion protein (presynaptic protein sao102, neuroendocrine-dlg; PDZ domains 1-2 of 3) (UniProt P08515 1-218 = GST)
T9 construct: also called NeDLG1
Experiment: A/G assays

T9 sequence (P08515 1-218, tags or fused parts left off): as above

Binder	binding result
B1	no binding

Target: GST-LIM PDZ domain fusion protein (Human LIM protein AA29-112; PDZ domain 1 of 1) (human, UniProt P08515 1-218 = GST)
Experiment: A/G assays

Sequence of GST-LIM PDZ domain fusion protein (Human LIM protein AA29-112; PDZ domain 1 of 1) (P08515 1-218, tags or fused parts left off): as above

Binder	binding result
B1	no binding

Target: GST-PSD95 PDZ domain fusion protein (human post-synaptic density protein 95 AA387-724; PDZ domains 1-3 of 3) (human, UniProt P08515 1-218 = GST)
Experiment: A/G assays

Sequence of GST-PSD95 PDZ domain fusion protein (human post-synaptic density protein 95 AA387-724; PDZ domains 1-3 of 3) (P08515 1-218, tags or fused parts left off): as above

Binder	binding result
B1	no binding

Target: T10, GST-41.8 kD PDZ domain fusion protein (hypothetical 41.8 kD protein AA4-85; PDZ domain 1 of 1) (UniProt P08515 1-218 = GST)
T10 construct: also called hypoth
Experiment: A/G assays

T10 sequence (P08515 1-218, tags or fused parts left off): as above

Binder	binding result
B1	no binding

Target: T11, GST-KIAA0559 PDZ domain fusion protein (KIAA0559 AA766-870; PDZ1 of 1) (UniProt P08515 1-218 = GST)
T11 construct: also called K559
Experiment: A/G assays

T11 sequence (P08515 1-218, tags or fused parts left off): as above

Binder	binding result
B1	no binding

Target: T12, GST-TAX2 PDZ domain fusion protein (human tax interaction protein 2 AA54-140; PDZ domain 1 of 1) (human, UniProt P08515 1-218 = GST)
T12 construct: also called TX 2
Experiment: A/G assays

T12 sequence (P08515 1-218, tags or fused parts left off): as above

Binder	binding result
B1	no binding

Target: GST-prIL16 PDZ domain fusion protein (putative interleukin 16 precursor AA170-383; PDZ domains 1-2 of 2) (UniProt P08515 1-218 = GST)
Experiment: A/G assays

Sequence of GST-prIL16 PDZ domain fusion protein (putative interleukin 16 precursor AA170-383; PDZ domains 1-2 of 2) (P08515 1-218, tags or fused parts left off): as above

Binder	binding result
B1	no binding

Target: GST-AF6 PDZ domain fusion protein (af-6 protein AA985-1077; PDZ domain 1 of 1) (UniProt P08515 1-218 = GST)
Experiment: A/G assays

Binder	binding result
B1	no binding

Target: T13, GST-KIAA0303 PDZ domain fusion protein (KIAA0303 AA652-742; PDZ domain 1 of 1) (UniProt P08515 1-218 = GST)
T13 construct: also called K303
Experiment: A/G assays

T13 sequence (P08515 1-218, tags or fused parts left off): as above

Binder	binding result
B1	no binding

Target: GST-DVL1 PDZ domain fusion protein (human dishevelled segment polarity protein homolog AA248-340); PDZ domain … (human, UniProt P08515 1-218 = GST)
Experiment: A/G assays

Sequence of GST-DVL1 PDZ domain fusion protein (human dishevelled segment polarity protein homolog AA248-340); PDZ domain … (P08515 1-218, tags or fused parts left off): as above

Binder	binding result
B1	no binding

Target: GST-LIMK2 PDZ domain fusion protein (human LIM domain kinase 2 AA185-275; PDZ domain 1 of 1) (human, UniProt P08515 1-218 = GST)
Experiment: A/G assays

Sequence of GST-LIMK2 PDZ domain fusion protein (human LIM domain kinase 2 AA185-275; PDZ domain 1 of 1) (P08515 1-218, tags or fused parts left off): as above

Binder	binding result
B1	no binding

Target: T14, GST-TAX40 PDZ domain fusion protein (human tax interaction protein 40 AA35-137; PDZ domain 1 of 1) (human, UniProt P08515 1-218 = GST)
T14 construct: also called TX 40
Experiment: A/G assays

T14 sequence (P08515 1-218, tags or fused parts left off): as above

Binder	binding result
B1	no binding
